Patent US20190359687A1 (Bayer, published 2019)
Values belong to the binder of their own block, whether it stands above or below them.

How the values were obtained:
GP5-15 = target: T1, GP5-15 (human, biotin at the N-terminus); assay: ELISA, biotin-peptide on streptavidin plate, Fab 1 ug/ml
T1 construct: GP5 with alanine at position 15 (E15A), already in the entry
T1 peptide: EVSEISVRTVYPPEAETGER

GP5-14 = target: T2, GP5-14 (human, biotin at the N-terminus); assay: as above
T2 construct: GP5 with alanine at position 14 (E14A), already in the entry
T2 peptide: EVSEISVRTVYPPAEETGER

GP5-8 = target: T3, GP5-8 (human, biotin at the N-terminus); assay: as above
T3 construct: GP5 with alanine at position 8 (R8A), already in the entry
T3 peptide: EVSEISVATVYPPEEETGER

GP5-13 = target: T4, GP5-13 (human, biotin at the N-terminus); assay: as above
T4 construct: GP5 with alanine at position 13 (P13A), already in the entry
T4 peptide: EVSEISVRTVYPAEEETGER

GP5-6 = target: T5, GP5-6 (human, biotin at the N-terminus); assay: as above
T5 construct: GP5 with alanine at position 6 (S6A), already in the entry
T5 peptide: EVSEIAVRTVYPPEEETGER

GP5-4 = target: T6, GP5-4 (human, biotin at the N-terminus); assay: as above
T6 construct: GP5 with alanine at position 4 (E4A), already in the entry
T6 peptide: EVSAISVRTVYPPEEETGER

GP5-3 = target: T7, GP5-3 (human, biotin at the N-terminus); assay: as above
T7 construct: GP5 with alanine at position 3 (S3A), already in the entry
T7 peptide: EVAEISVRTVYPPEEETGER

GP5-17 = target: T8, GP5-17 (human, biotin at the N-terminus); assay: as above
T8 construct: GP5 with alanine at position 17 (T17A), already in the entry
T8 peptide: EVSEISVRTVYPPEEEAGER

GP5-20 = target: T9, GP5-20 (human, biotin at the N-terminus); assay: as above
T9 construct: GP5 with alanine at position 20 (R20A), already in the entry
T9 peptide: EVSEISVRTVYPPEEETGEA

GP5-10 = target: T10, GP5-10 (human, biotin at the N-terminus); assay: as above
T10 construct: GP5 with alanine at position 10 (V10A), already in the entry
T10 peptide: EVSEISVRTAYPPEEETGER

GP5-9 = target: T11, GP5-9 (human, biotin at the N-terminus); assay: as above
T11 construct: GP5 with alanine at position 9 (T9A), already in the entry
T11 peptide: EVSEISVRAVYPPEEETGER

GP5-1 = target: T12, GP5-1 (human, biotin at the N-terminus); assay: as above
T12 construct: GP5 with alanine at position 1 (E1A), already in the entry
T12 peptide: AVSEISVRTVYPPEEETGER

GP5-11 = target: T13, GP5-11 (human, biotin at the N-terminus); assay: as above
T13 construct: GP5 with alanine at position 11 (Y11A), already in the entry
T13 peptide: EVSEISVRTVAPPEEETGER

GP5-2 = target: T14, GP5-2 (human, biotin at the N-terminus); assay: as above
T14 construct: GP5 with alanine at position 2 (V2A), already in the entry
T14 peptide: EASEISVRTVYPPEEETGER

GP5-19 = target: T15, GP5-19 (human, biotin at the N-terminus); assay: as above
T15 construct: GP5 with alanine at position 19 (E19A), already in the entry
T15 peptide: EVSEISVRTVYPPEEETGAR

GP5-12 = target: T16, GP5-12 (human, biotin at the N-terminus); assay: as above
T16 construct: GP5 with alanine at position 12 (P12A), already in the entry
T16 peptide: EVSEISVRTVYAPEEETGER

GP5-5 = target: T17, GP5-5 (human, biotin at the N-terminus); assay: as above
T17 construct: GP5 with alanine at position 5 (I5A), already in the entry
T17 peptide: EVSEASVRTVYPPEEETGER

GP5-16 = target: T18, GP5-16 (human, biotin at the N-terminus); assay: as above
T18 construct: GP5 with alanine at position 16 (E16A), already in the entry
T18 peptide: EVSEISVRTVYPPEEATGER

GP5-7 = target: T19, GP5-7 (human, biotin at the N-terminus); assay: as above
T19 construct: GP5 with alanine at position 7 (V7A), already in the entry
T19 peptide: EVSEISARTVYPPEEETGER

GP5-18 = target: T20, GP5-18 (human, biotin at the N-terminus); assay: as above
T20 construct: GP5 with alanine at position 18 (G18A), already in the entry
T20 peptide: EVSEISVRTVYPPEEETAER

[1] = target: T21, Cynomolgus monkey glycophorin A on Cynomolgus monkey red blood cells (Cynomolgus monkey); assay: FACS, Cyno #3 RBC
T21 construct: whole, on cells; also called Cyno RBC; Cyno GPA

dog red blood cells [2] = target: T22, dog red blood cells (dog); assay: FACS, Dog RBC
T22 construct: also called dog RBC

[3] = target: T21, Cynomolgus monkey glycophorin A on …; assay: FACS, Cyno #2 RBC
[4] = target: T23, human glycophorin A in the red blood cell membrane (human, UniProt P02724 20-150); assay: FACS, scFv-Fc
T23 construct: whole, on cells; used for intact RBC, isolated RBC membranes and transfected cells; the assay field tells which; also called GPA; hGPA
T23 sequence (looked up): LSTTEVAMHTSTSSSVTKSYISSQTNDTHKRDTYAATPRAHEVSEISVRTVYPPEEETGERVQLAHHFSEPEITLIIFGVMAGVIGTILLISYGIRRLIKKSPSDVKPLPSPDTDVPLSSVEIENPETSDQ

[5] = target: T23, human glycophorin A in the red blood …; assay: FACS, Human RBC
[6] = target: T24, Rhesus monkey glycophorin A on Rhesus monkey red blood cells (Rhesus monkey, UniProt A0A1D5Q349 20-150); assay: FACS, Rhesus RBC
T24 construct: whole, on cells; also called Rhesus RBC; monkey GPA
T24 sequence: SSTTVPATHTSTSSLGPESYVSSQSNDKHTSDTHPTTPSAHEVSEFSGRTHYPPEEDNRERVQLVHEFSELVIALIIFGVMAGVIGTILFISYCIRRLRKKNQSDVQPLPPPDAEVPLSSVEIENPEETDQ

[7] = target: T21, Cynomolgus monkey glycophorin A on …; assay: FACS, Cyno #1 RBC
[8] = target: T25, purified human glycophorin A protein (Sigma, cat # G5017) (human, UniProt P02724 20-150); assay: ELISA, IgG
T25 construct: mature; also called Sigma hGPA; Sigma GPA
T25 sequence (looked up): T23 sequence (looked up)

GP5 peptide = target: T26, GP5 peptide (human, N-terminal biotin); assay: peptides bound to plates (data not shown)
T26 construct: residues 42 to 61 of the human glycophorin A extracellular domain
T26 peptide: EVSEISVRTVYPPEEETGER

[9] = target: T24, Rhesus monkey glycophorin A on Rhesus …; assay: FACS, RBC Rh02
[10] = target: T25, purified human glycophorin A protein …; assay: ELISA, hGPA
Method: (§1) Hybridomas were generated from the spleen cells of these mice and these hybriomas were screened first by fluorescence activated cell sorting (FACS) against isolated human and monkey (Cynomolgus monkey and Rhesus monkey) red blood cells (RBC) and then by ELISA against purified human glycophorin A protein (GPA). Isolated RBC were prepared from whole blood from normal human, cynomolgus monkey, and beagle dog, were anticoagulant with sodium heparin (Bioreclamation). 2-3 mL of whole blood was loaded gently on the top of 3 mL Ficoll Plus (Sigma Aldrich) then centrifuged at 500 g for 20 min at room temperature (RT). The RBC pellets were washed 3 times with 10 mL of PBS, and centrifuge 400 g for 10 min at RT. RBC pellets were re-suspended in PBS at the same total volume as the original blood volume to achieve the same RBC cell density as in whole blood and stored at 4° C. Purified human glycophorin A protein was obtained from Sigma Aldrich and coated on ELISA plates at 2 ug/ml. Binding of antibodies to human GPA was detected using appropriate secondary antibodies using methods well known in the art.

[11] = target: T21, Cynomolgus monkey glycophorin A on …; assay: FACS, RBC Cy02
Method: (§2) The binding of the humanized variants to intact red blood cells (RBC) from humans (Hu01 to 03; 3 individuals), Rhesus monkey (Rh01 to 03; 3 individuals) and Cynomolgus monkey (Cy01 to 02; 2 individuals) was measured by fluorescence activated cell sorting (FACS).

[12] = target: T24, Rhesus monkey glycophorin A on Rhesus …; assay: FACS, RBC Rh01
Method: as §2

[13] = target: T23, human glycophorin A in the red blood …; assay: FACS, hu RBC
[14] = target: T23, human glycophorin A in the red blood …; assay: FACS, RBC Hu01
Method: as §2

[15] = target: T23, human glycophorin A in the red blood …; assay: FACS, RBC Hu02
Method: as §2

[16] = target: T23, human glycophorin A in the red blood …; assay: FACS, RBC Hu03
Method: as §2

[17] = target: T21, Cynomolgus monkey glycophorin A on …; assay: FACS, Cyno RBC
Method: as §1

[18] = target: T23, human glycophorin A in the red blood …; assay: FACS, IgG titrated on human GPA expressing CHO-QMCF1 cells (17d post txn)
dog red blood cells [19] = target: T22, dog red blood cells; assay: FACS, dog RBC
Method: as §1

[20] = target: T21, Cynomolgus monkey glycophorin A on …; assay: FACS, RBC Cy01
Method: as §2

[21] = target: T25, purified human glycophorin A protein …; assay: ELISA, purified IgG
Method: (§3) The “Sigma GPA” is a crude preparation of human GPA extracted from human red blood cells and is therefore representative of the highly glycosylated form of the native protein.
(§4) EC 50 values were determined from a dilution curve of the antibody. Sigma GPA is partially purified GPA extracted from human red blood cells and purchased from Sigma Chemical Company (cat # G5017), asialo hGPA is human GPA that was desialylated and ECD is the recombinantly expressed ectodomain which is the extracellular portion of GPA.

[22] = target: T27, asialo hGPA (desialylated human GPA) (human, UniProt P02724 20-150, desialylated); assay: ELISA, purified IgG
T27 construct: mature; also called asialo-GPA
T27 sequence (looked up): T23 sequence (looked up)
Method: as §3, §4

[23] = target: T28, recombinant human GPA ectodomain (human, UniProt P02724 20-91); assay: ELISA, purified IgG
T28 construct: also called recombinant hGPA ECD; recGPA
T28 sequence: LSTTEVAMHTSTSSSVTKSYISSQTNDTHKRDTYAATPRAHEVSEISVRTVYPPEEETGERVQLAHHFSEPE
Method: as §3, §4

[24] = target: T28, recombinant human GPA ectodomain; assay: SPR, IgG
[25] = target: T24, Rhesus monkey glycophorin A on Rhesus …; assay: FACS, RBC Rh03
Method: as §2

- binding signal (ELISA) (GP5-15): 366
- binding signal (ELISA) (GP5-14): 9
- binding signal (ELISA) (GP5-8): 7360
- binding signal (ELISA) (GP5-13): 2000
- binding signal (ELISA) (GP5-6): 6370
- binding signal (ELISA) (GP5-4): 4840
- binding signal (ELISA) (GP5-3): 6160
- binding signal (ELISA) (GP5-17): 6250
- binding signal (ELISA) (GP5-20): 6850
- binding signal (ELISA) (GP5-10): 337
- binding signal (ELISA) (GP5-9): 7280
- binding signal (ELISA) (GP5-1): 5310
- binding signal (ELISA) (GP5-11): -1
- binding signal (ELISA) (GP5-2): 6170
- binding signal (ELISA) (GP5-19): 4580
- binding signal (ELISA) (GP5-12): 282
- binding signal (ELISA) (GP5-5): 6780
- binding signal (ELISA) (GP5-16): 3390
- binding signal (ELISA) (GP5-7): 7180
- binding signal (ELISA) (GP5-18): 6290
B1: TPP-5906 Fab (Fab, V domains shown)
VH: EVQLVQSGAEVKKPGASVKVSCKASGYTFTTYTIHWVRQAPGQGLEWMGYINPSSGYTRYNPKFKGRVTMTRDKSTSTAYMELRSLRSDDTAVYYCQTGTRDYWGQGTTVTVSS
VL: DIQLTQSPSFLSASVGDRVTITCRASSSVSYIYWFQQKPGKAPKLLIYATSTLQSGVPSRFSGSGSGTEYTLTISSLQPEDFATYYCHQRNSFPYTFGQGTKLEIKR
notes: also called parental humanized and germlined 6C12 Fab

- FACS signal [1]: 1 Flourescent units
- FACS signal (dog red blood cells [2]): 1 Flourescent units
- FACS signal [3]: 1 Flourescent units
- binding result [4]: no binding
- FACS signal [5]: 1 Flourescent units
- FACS signal [6]: 1 Flourescent units
- FACS signal [7]: 1 Flourescent units
B2: 1H5 scFv-Fc (Fc fusion)
scFv: QVQLQQSGAELARPGASVKMSCKASGYTFTSYSIHWIKQRPGQSLEWIGYINPNSDYANYNQKFKDKATLTTDKSSTTAYMQLSSLTTDDSAVYYCQTGTRDYWGQGTTLTVSSGGGGSGGGGSGGGGSDIVMTQSPSSLSVSAGEKVTMSCKSSQSLLNSGNQKNYLAWYQQKPGQPPKLLIYGASTRESGVPDRFTGSGSGTDFTLTISSVQAEDLAVYYCQNDHSYPYTFGGGTKLEIKGGGGAGGGGCKPCICTVPEVSSVFIFPPKPKDVLTITLTPKVTCVVVDISKDDPEVQFSWFVDDVEVHTAQTQPREEQFNSTFRSVSELPIMHQDWLNGKEFKCRVNSAAFPAPIEKTISKTKGRPKAPQVYTIPPPKEQMAKDKVSLTCMITDFFPEDITVEWQWNGQPAENYKNTQPIMDTDGSYFVYSKLNVQKSNWEAGNTFTCSVLHEGLHNHHTEKSLSHSPGK
notes: as m18

- EC50 [8]: 0.326 nM
- binding result (GP5 peptide): binds
- fluorescence intensity [9]: 3410
- EC50 [10]: 0.791 nM
- fluorescence intensity [11]: 2570
- fluorescence intensity [12]: 3780
- FACS signal [13]: 3100 relative flourescence units
- fluorescence intensity [14]: 3520
- fluorescence intensity [15]: 2540
- fluorescence intensity [16]: 2680
- FACS signal [17]: 292 relative flourescence units
- EC50 (read off the curve) [18]: ~0.06 µg/mL
- FACS signal (dog red blood cells [19]): 1.18 relative flourescence units
- fluorescence intensity [20]: 2570
- EC50 [21]: 0.64 nM
- EC50 [22]: 0.69 nM
- EC50 [23]: 0.59 nM
- Kd [24]: 2.98 nM
- koff [24]: 0.00212 s⁻¹
- kon [24]: 711000 M⁻¹ s⁻¹
- t½ [24]: 5.4 min
- fluorescence intensity [25]: 3180
B3: 6C12B8/H8 (antibody, V domains shown)
VH: RVQLQQSGAELARPGASVKMSCKASGYTFTTYTIHWVKQKTGQGLEWIGYINPSSDYTRYNPKFKDKATLTTDKSSSTAYMKLNSLASDDSAVYYCQTGTRDYWGQGTTLTVSS
VL: QIVLTQSPPIMSASPGEKVTMTCSAASSVSYIYWFQQKPGTSPKLWIYSTSTLPSGVPTRFSGSGSGTSYSLTISRMEAEDAATYYCHQRNSFPFTFGSGTKLEIR
notes: mouse IgG1/k from hybridoma; also called 6C12 parental; TPP-3422
